Results published in US20160083481A1 (INSERM INSTITUT NATIONAL DE LA SANT ET DE LA RECHERCHE M …, published 2016).

Experiments:
[1] = target: T1, Glycophorin B in the crude glycophorins mixture (human, UniProt P06028 20-91); assay: western blot of the crude glycophorins mixture, PVDF, with and without NaOH beta-elimination
T1 construct: mature; also called GPB

[2] = target: T2, Purified glycophorin A (human, from red cell membranes) (human, UniProt P02724 20-150); assay: SPR, Biacore X100, purified GPA amine-coupled on a CM5 chip (400 RU), IH4 as analyte, 1:1 Langmuir fit
T2 construct: mature; also called GPA; Human Glycophorin A
T2 sequence (looked up): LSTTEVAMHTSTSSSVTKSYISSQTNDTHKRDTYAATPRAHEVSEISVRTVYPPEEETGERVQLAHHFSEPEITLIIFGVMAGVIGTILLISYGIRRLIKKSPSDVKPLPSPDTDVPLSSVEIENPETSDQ
Experimental: SPR recordings obtained in a Biacore X100 apparatus.
SPR analysis of VHH interactions used a Biacore X100 apparatus (GE Healthcare). Purified GPA was immobilized on a CM5 chip in the Fc2 channel to a level of 400 Resonance units using amine coupling chemistry as recommended by the manufacturer. Reference channel Fc1 was simply activated and deactivated through ethanolamine. 6 different concentrations of analyte were injected onto the chip for 180 seconds, and dissociation let to proceed for 600 seconds. Data were analyzed using BIA Evaluation software associated to the apparatus.
Data can be easily fitted using 1:1 Langmuir fit.

B1: IH4 (VHH)
VHH: QVQLQESGGGSVQAGGSLRLSCVASGYTDSTYCVGWFRQAPGKEREGVARINTISGRPWYADSVKGRFTISQDNSKNTVFLQMNSLKPEDTAIYYCTLTTANSRGFCSGGYNYKGQGQVTVS
notes: also called VHH IH4; autonomous IH4; not shown: A polyhistidine tail is also present: C-terminal after the HA tag (pHEN6cPm)
- binding result [1]: no binding
- Kd [2]: 33.7 nM
- koff [2]: 0.019 s⁻¹
- kon [2]: 573000 M⁻¹ s⁻¹
